The target in the series is T1, peptide derived from the known CHK1 kinase substrate CDC25C (GLYRSPSMPENLNR).
T1 chain: GLYRSPSMPENLNR

B1: CHK1sv1-His-tagged protein (protein)
chain: MAVPFVEDWDLVQTLGEGAYGEVQLAVNRVTEEAVAVKIVDMKRAVDCPENIKKEICINKMLNHENVVKFYGHRREGNIQYLFLEYCSGGELFDRIEPDIGMPEPDAQRFFHQLMAGVVYLHGIGITHRDIKPENLLLDERDNLKISDFGLATVFRYNNRERLLNKMCGTLPYVAPELLKRREFHAEPVDVWSCGIVLTAMLAGELPWDQPSDSCQEYSDWKEKKTYLNPWKKIDSAPLALLHKILVENPSARITIPDIKKDRWYNKPLKKGAKRPRVTSGGVSESPSGFSKHIQSNLDFSPVNSASRTPGSGWSKEHHHHHH
As for B1, the “Km (CDC25C substrate)” value came out at 120 µM and the Vmax turned out to be 36 nmol/min/µg.

The values are drawn from patent US20050266469.
